Tested on: Escherichia coli TOP10
Assay: shrunken log2 fold change of peptide-encoding DNA abundance (4.5 h post-induction vs induction); higher = less antimicrobial activity (less host growth inhibition)
Settings: time post-induction: 4.5 h; library: site-saturation at positions 5, 18, 19, 20
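Further: peptides expressed intracellularly from a pBAD plasmid library in pooled LB shake-flask culture, induced with 0.3% L-arabinose, DNA abundance read by NGS, three biological replicates, DESeq2 with apeglm shrinkage.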

Sequence	shrunken log2 fold change
RRIRVRPPRLPRPRPRPGGCPRP	0.261
RRIRSRPPRLPRPRPRPWWKPRP	-0.0475
RRIRLRPPRLPRPRPRPCPMPRP	-0.444
RRIRPRPPRLPRPRPRPHNYPRP	-0.631
RRIRQRPPRLPRPRPRPNNCPRP	-0.138
RRIRARPPRLPRPRPRPGRTPRP	0.683
RRIRSRPPRLPRPRPRPTPAPRP	0.299
RRIRWRPPRLPRPRPRPAPYPRP	-0.0336
RRIRNRPPRLPRPRPRPQGLPRP	-0.109
RRIRNRPPRLPRPRPRPYLHPRP	-0.429
RRIRYRPPRLPRPRPRPEPQPRP	-0.777
RRIRMRPPRLPRPRPRPAVYPRP	0.265
RRIRFRPPRLPRPRPRPLQHPRP	-0.134
RRIRARPPRLPRPRPRPCDNPRP	-0.273
RRIRARPPRLPRPRPRPKPIPRP	0.319
RRIRMRPPRLPRPRPRPYVNPRP	-0.284
RRIRARPPRLPRPRPRPGSHPRP	0.101
RRIRNRPPRLPRPRPRPVFVPRP	-0.123
RRIRDRPPRLPRPRPRPDTIPRP	-0.0164
RRIRVRPPRLPRPRPRPAHFPRP	0.31
RRIRYRPPRLPRPRPRPTVTPRP	-0.283
RRIRMRPPRLPRPRPRPYKFPRP	0.0435
RRIRCRPPRLPRPRPRPGMRPRP	0.532
RRIRPRPPRLPRPRPRPRFNPRP	-0.181
RRIRNRPPRLPRPRPRPCLFPRP	-0.608

Sequence	shrunken log2 fold change
RRIRTRPPRLPRPRPRPGPIPRP	0.316
RRIRTRPPRLPRPRPRPVFYPRP	-0.25
RRIRSRPPRLPRPRPRPFSAPRP	-0.259
RRIRYRPPRLPRPRPRPGSIPRP	-0.606
RRIRDRPPRLPRPRPRPEMDPRP	0.0766
RRIRGRPPRLPRPRPRPQHCPRP	0.0523
RRIRCRPPRLPRPRPRPQKLPRP	-0.188
RRIRPRPPRLPRPRPRPFRQPRP	-0.00634
RRIRCRPPRLPRPRPRPFTYPRP	-0.631
RRIRARPPRLPRPRPRPVQLPRP	0.101
RRIRYRPPRLPRPRPRPFIAPRP	-1.12
RRIRTRPPRLPRPRPRPLRMPRP	-0.0962
RRIRPRPPRLPRPRPRPCKNPRP	-0.328
RRIRRRPPRLPRPRPRPMLAPRP	0.983
RRIRTRPPRLPRPRPRPFFKPRP	-0.303
RRIRGRPPRLPRPRPRPMQLPRP	0.539
RRIRARPPRLPRPRPRPSWGPRP	0.0646
RRIRMRPPRLPRPRPRPALNPRP	0.759
RRIRHRPPRLPRPRPRPLVHPRP	-0.238
RRIRARPPRLPRPRPRPSQQPRP	-0.0191
RRIRMRPPRLPRPRPRPWTIPRP	-0.0577
RRIRSRPPRLPRPRPRPHQEPRP	-0.0261
RRIRYRPPRLPRPRPRPKSRPRP	-0.552
RRIRYRPPRLPRPRPRPMSSPRP	-0.0121
RRIRKRPPRLPRPRPRPIYIPRP	-0.127

Sequence	shrunken log2 fold change
RRIRGRPPRLPRPRPRPHKNPRP	0.535
RRIRLRPPRLPRPRPRPGLFPRP	0.157
RRIRRRPPRLPRPRPRPIIDPRP	-0.125
RRIRWRPPRLPRPRPRPPDWPRP	1.19
RRIRHRPPRLPRPRPRPHSMPRP	-0.337
RRIRTRPPRLPRPRPRPMTFPRP	0.0754
RRIRGRPPRLPRPRPRPFCEPRP	0.403
RRIRHRPPRLPRPRPRPTFTPRP	-0.265
RRIRCRPPRLPRPRPRPCRFPRP	-0.178
RRIRMRPPRLPRPRPRPIMCPRP	-0.19
RRIRNRPPRLPRPRPRPGSSPRP	0.0992
RRIRLRPPRLPRPRPRPFKTPRP	-0.501
RRIRERPPRLPRPRPRPCMYPRP	-0.201
RRIRPRPPRLPRPRPRPRYEPRP	-0.0954
RRIRWRPPRLPRPRPRPCSQPRP	0.0161
RRIRHRPPRLPRPRPRPDGLPRP	-0.0219
RRIRVRPPRLPRPRPRPNMGPRP	-0.11
RRIRNRPPRLPRPRPRPKELPRP	0.0238
RRIRFRPPRLPRPRPRPHGIPRP	-0.00151
RRIRQRPPRLPRPRPRPLNAPRP	0.0127
RRIRDRPPRLPRPRPRPFNRPRP	0.00902
RRIRPRPPRLPRPRPRPMDGPRP	0.214
RRIRCRPPRLPRPRPRPSYHPRP	0.811
RRIRCRPPRLPRPRPRPTKDPRP	-0.489
RRIRCRPPRLPRPRPRPFGWPRP	0.24

Sequence	shrunken log2 fold change
RRIRCRPPRLPRPRPRPKPSPRP	0.136
RRIRGRPPRLPRPRPRPHQHPRP	0.112
RRIRMRPPRLPRPRPRPCDHPRP	0.00316
RRIRSRPPRLPRPRPRPQMLPRP	-0.195
RRIRERPPRLPRPRPRPTGLPRP	0.235
RRIRDRPPRLPRPRPRPWISPRP	-0.00776
RRIRLRPPRLPRPRPRPESWPRP	0.162
RRIRWRPPRLPRPRPRPVFLPRP	-0.0837
RRIRHRPPRLPRPRPRPCIVPRP	-0.0379
RRIRRRPPRLPRPRPRPFRLPRP	-0.143
RRIRPRPPRLPRPRPRPGIRPRP	0.105
RRIRQRPPRLPRPRPRPYYKPRP	-0.962
RRIRNRPPRLPRPRPRPASSPRP	-0.317
RRIRSRPPRLPRPRPRPDEFPRP	-0.149
RRIRARPPRLPRPRPRPGRCPRP	0.745
RRIRSRPPRLPRPRPRPKVCPRP	0.00182
RRIRFRPPRLPRPRPRPCFNPRP	-0.385
RRIRQRPPRLPRPRPRPGEMPRP	0.0469
RRIRRRPPRLPRPRPRPCDLPRP	0.0275
RRIRSRPPRLPRPRPRPARQPRP	-0.0654
RRIRERPPRLPRPRPRPYTFPRP	-0.282
RRIRFRPPRLPRPRPRPFCAPRP	-0.102
RRIRKRPPRLPRPRPRPASEPRP	0.879
RRIRFRPPRLPRPRPRPWPDPRP	0.0228
RRIRFRPPRLPRPRPRPPSRPRP	0.551

Sequence	shrunken log2 fold change
RRIRERPPRLPRPRPRPVRVPRP	0.247
RRIRRRPPRLPRPRPRPSGEPRP	0.387
RRIRIRPPRLPRPRPRPENRPRP	-0.176
RRIRPRPPRLPRPRPRPTSVPRP	0.181
RRIRARPPRLPRPRPRPHAYPRP	0.0225
RRIRFRPPRLPRPRPRPDKGPRP	-0.0555
RRIRGRPPRLPRPRPRPMDHPRP	-0.137
RRIRVRPPRLPRPRPRPFYLPRP	-0.449
RRIRKRPPRLPRPRPRPQMHPRP	0.0713
RRIRHRPPRLPRPRPRPITLPRP	0.0184
RRIRCRPPRLPRPRPRPPPHPRP	1.3
RRIRMRPPRLPRPRPRPGRIPRP	0.0372
RRIRPRPPRLPRPRPRPGNAPRP	0.34
RRIRYRPPRLPRPRPRPDPGPRP	-0.124
RRIRYRPPRLPRPRPRPAHGPRP	0.1
RRIRCRPPRLPRPRPRPEAAPRP	1.11
RRIRTRPPRLPRPRPRPWSRPRP	-0.0291
RRIRKRPPRLPRPRPRPCAVPRP	2.99
RRIRARPPRLPRPRPRPTMAPRP	0.6
RRIRRRPPRLPRPRPRPAYFPRP	0.401
RRIRQRPPRLPRPRPRPSHLPRP	0.049
RRIRFRPPRLPRPRPRPYDHPRP	-0.0263
RRIRNRPPRLPRPRPRPPFEPRP	0.128
RRIRMRPPRLPRPRPRPQFQPRP	-0.165
RRIRRRPPRLPRPRPRPACYPRP	0.488

Sequence	shrunken log2 fold change
RRIRLRPPRLPRPRPRPDLQPRP	-0.0184
RRIRARPPRLPRPRPRPKFIPRP	-0.135
RRIRDRPPRLPRPRPRPWIRPRP	-0.24
RRIRTRPPRLPRPRPRPPDRPRP	0.257
RRIRERPPRLPRPRPRPNPNPRP	-0.365
RRIRSRPPRLPRPRPRPRWCPRP	0.051
RRIRFRPPRLPRPRPRPAVMPRP	0.248
RRIRLRPPRLPRPRPRPDFAPRP	0.0202
RRIRERPPRLPRPRPRPQRWPRP	0.117
RRIRSRPPRLPRPRPRPGEDPRP	0.106
RRIRRRPPRLPRPRPRPTNFPRP	-0.125
RRIRVRPPRLPRPRPRPNQSPRP	0.00904
RRIRMRPPRLPRPRPRPVYYPRP	-0.123
RRIRPRPPRLPRPRPRPALIPRP	-0.0205
RRIRTRPPRLPRPRPRPIFCPRP	-0.327
RRIRHRPPRLPRPRPRPNTHPRP	-0.856
RRIRDRPPRLPRPRPRPSHVPRP	-0.401
RRIRARPPRLPRPRPRPIIVPRP	-0.226
RRIRNRPPRLPRPRPRPVKYPRP	-0.288
RRIRFRPPRLPRPRPRPNKWPRP	-0.266
RRIRGRPPRLPRPRPRPFFFPRP	0.696
RRIRFRPPRLPRPRPRPYAGPRP	-0.208
RRIRQRPPRLPRPRPRPRHDPRP	0.0818
RRIRKRPPRLPRPRPRPQEMPRP	-0.00136
RRIRERPPRLPRPRPRPVEDPRP	0.0178

Reference: the supplement of paper PMC9112550, “Optimization of the antimicrobial peptide Bac7 by deep mutational scanning” (BMC Biology, 2022)
